Laboratory results as given in the supplement of paper PMC9112550, “Optimization of the antimicrobial peptide Bac7 by deep mutational scanning” (BMC Biology, 2022).

Test system: Escherichia coli TOP10
Test: shrunken log2 fold change of peptide-encoding DNA abundance (4.5 h post-induction vs induction); higher = less antimicrobial activity (less host growth inhibition)
Conditions: time post-induction: 4.5 h; library: site-saturation at positions 5, 18, 19, 20
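Further: peptides expressed intracellularly from a pBAD plasmid library in pooled LB shake-flask culture, induced with 0.3% L-arabinose, DNA abundance read by NGS, three biological replicates, DESeq2 with apeglm shrinkage.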

| Sequence | shrunken log2 fold change |
| --- | --- |
| RRIRDRPPRLPRPRPRPPGHPRP | 0.0994 |
| RRIRSRPPRLPRPRPRPKQKPRP | -0.000384 |
| RRIRGRPPRLPRPRPRPAWIPRP | 0.347 |
| RRIRGRPPRLPRPRPRPIKMPRP | 0.441 |
| RRIRNRPPRLPRPRPRPLPLPRP | 0.187 |
| RRIRLRPPRLPRPRPRPWVFPRP | 0.163 |
| RRIRYRPPRLPRPRPRPTDNPRP | -1.05 |
| RRIRNRPPRLPRPRPRPFKKPRP | -0.263 |
| RRIRQRPPRLPRPRPRPQYRPRP | 0.0114 |
| RRIRERPPRLPRPRPRPFGMPRP | -0.0947 |
| RRIRWRPPRLPRPRPRPLDIPRP | 1.52 |
| RRIRSRPPRLPRPRPRPQCMPRP | -0.584 |
| RRIRTRPPRLPRPRPRPYLRPRP | -0.163 |
| RRIRGRPPRLPRPRPRPSHTPRP | -0.102 |
| RRIRRRPPRLPRPRPRPKEWPRP | 0.044 |
| RRIRRRPPRLPRPRPRPPPVPRP | 0.931 |
| RRIRSRPPRLPRPRPRPEVGPRP | 0.726 |
| RRIRKRPPRLPRPRPRPEEEPRP | 0.0391 |
| RRIRSRPPRLPRPRPRPMFLPRP | -0.595 |
| RRIRDRPPRLPRPRPRPFGMPRP | -0.0413 |
| RRIRGRPPRLPRPRPRPRFFPRP | 0.741 |
| RRIRCRPPRLPRPRPRPVPEPRP | 0.316 |
| RRIRKRPPRLPRPRPRPGLAPRP | 0.977 |
| RRIRGRPPRLPRPRPRPYNDPRP | -0.155 |
| RRIRCRPPRLPRPRPRPTWYPRP | -0.28 |

| Sequence | shrunken log2 fold change |
| --- | --- |
| RRIRLRPPRLPRPRPRPEWGPRP | 0.504 |
| RRIRNRPPRLPRPRPRPCYNPRP | -0.124 |
| RRIRFRPPRLPRPRPRPLNMPRP | -0.777 |
| RRIRNRPPRLPRPRPRPPYNPRP | -0.627 |
| RRIRLRPPRLPRPRPRPAGQPRP | -0.0451 |
| RRIRGRPPRLPRPRPRPMMMPRP | 0.574 |
| RRIRKRPPRLPRPRPRPDSIPRP | -0.0839 |
| RRIRWRPPRLPRPRPRPPDHPRP | 0.594 |
| RRIRTRPPRLPRPRPRPREFPRP | 0.33 |
| RRIRCRPPRLPRPRPRPRRRPRP | 0.496 |
| RRIRLRPPRLPRPRPRPHKNPRP | -0.256 |
| RRIRFRPPRLPRPRPRPAHIPRP | -0.218 |
| RRIRERPPRLPRPRPRPTEKPRP | 0.154 |
| RRIRIRPPRLPRPRPRPWDWPRP | 0.0472 |
| RRIRMRPPRLPRPRPRPMIRPRP | 0.00211 |
| RRIRTRPPRLPRPRPRPRKYPRP | -0.809 |
| RRIRTRPPRLPRPRPRPCRGPRP | -0.398 |
| RRIRLRPPRLPRPRPRPHYYPRP | -0.438 |
| RRIRNRPPRLPRPRPRPYNRPRP | 0.00748 |
| RRIRTRPPRLPRPRPRPMFWPRP | 0.285 |
| RRIRWRPPRLPRPRPRPMLKPRP | -0.109 |
| RRIRVRPPRLPRPRPRPWMHPRP | -0.406 |
| RRIRFRPPRLPRPRPRPCAIPRP | -0.0259 |
| RRIRLRPPRLPRPRPRPHFAPRP | -0.0165 |
| RRIRIRPPRLPRPRPRPVWSPRP | 0.0432 |

| Sequence | shrunken log2 fold change |
| --- | --- |
| RRIRLRPPRLPRPRPRPFLNPRP | -0.172 |
| RRIRIRPPRLPRPRPRPKFEPRP | -0.361 |
| RRIRFRPPRLPRPRPRPTHDPRP | 0.241 |
| RRIRKRPPRLPRPRPRPHGPPRP | 0.0129 |
| RRIRIRPPRLPRPRPRPRRNPRP | -0.0717 |
| RRIRMRPPRLPRPRPRPAMGPRP | 0.867 |
| RRIRYRPPRLPRPRPRPKWIPRP | -0.863 |
| RRIRGRPPRLPRPRPRPFWEPRP | 0.577 |
| RRIRFRPPRLPRPRPRPQMVPRP | -0.0194 |
| RRIRYRPPRLPRPRPRPEFWPRP | -0.0503 |
| RRIRERPPRLPRPRPRPYGGPRP | -0.286 |
| RRIRCRPPRLPRPRPRPQVAPRP | 0.0924 |
| RRIRTRPPRLPRPRPRPGWHPRP | -0.014 |
| RRIRIRPPRLPRPRPRPHCYPRP | -0.104 |
| RRIRTRPPRLPRPRPRPTDNPRP | -0.302 |
| RRIRFRPPRLPRPRPRPAEPPRP | 0.137 |
| RRIRYRPPRLPRPRPRPPPEPRP | 0.456 |
| RRIRNRPPRLPRPRPRPIHTPRP | -0.0125 |
| RRIRQRPPRLPRPRPRPYKQPRP | 0.0225 |
| RRIRNRPPRLPRPRPRPFSDPRP | -0.246 |
| RRIRGRPPRLPRPRPRPTRSPRP | 1.18 |
| RRIRHRPPRLPRPRPRPLTLPRP | -0.193 |
| RRIRVRPPRLPRPRPRPNDMPRP | -0.337 |
| RRIRFRPPRLPRPRPRPVFIPRP | -0.811 |
| RRIRCRPPRLPRPRPRPIHNPRP | -0.725 |

| Sequence | shrunken log2 fold change |
| --- | --- |
| RRIRSRPPRLPRPRPRPTMMPRP | -0.253 |
| RRIRIRPPRLPRPRPRPPRPPRP | 0.822 |
| RRIRNRPPRLPRPRPRPPHNPRP | 0.216 |
| RRIRWRPPRLPRPRPRPRLRPRP | 0.461 |
| RRIRARPPRLPRPRPRPWACPRP | 0.0376 |
| RRIRCRPPRLPRPRPRPTLIPRP | 1.65 |
| RRIRERPPRLPRPRPRPSHWPRP | -0.292 |
| RRIRNRPPRLPRPRPRPCFGPRP | 0.0347 |
| RRIRRRPPRLPRPRPRPLDFPRP | 0.184 |
| RRIRHRPPRLPRPRPRPPMMPRP | 0.03 |
| RRIRCRPPRLPRPRPRPCQAPRP | -0.244 |
| RRIRERPPRLPRPRPRPGGSPRP | 0.154 |
| RRIRSRPPRLPRPRPRPPQGPRP | 0.39 |
| RRIRSRPPRLPRPRPRPAPGPRP | 0.54 |
| RRIRLRPPRLPRPRPRPYILPRP | -0.317 |
| RRIRFRPPRLPRPRPRPAGCPRP | 0.229 |
| RRIRERPPRLPRPRPRPCFMPRP | -0.231 |
| RRIRPRPPRLPRPRPRPWWDPRP | -0.204 |
| RRIRPRPPRLPRPRPRPMPHPRP | -0.169 |
| RRIRFRPPRLPRPRPRPNVLPRP | -0.323 |
| RRIRLRPPRLPRPRPRPRDMPRP | 0.00118 |
| RRIRARPPRLPRPRPRPEDGPRP | 1.48 |
| RRIRARPPRLPRPRPRPRPSPRP | 0.622 |
| RRIRKRPPRLPRPRPRPMYDPRP | -0.127 |
| RRIRTRPPRLPRPRPRPPRSPRP | 0.529 |

| Sequence | shrunken log2 fold change |
| --- | --- |
| RRIRTRPPRLPRPRPRPHQIPRP | 0.269 |
| RRIRHRPPRLPRPRPRPMQNPRP | -0.0144 |
| RRIRERPPRLPRPRPRPRNTPRP | -0.346 |
| RRIRLRPPRLPRPRPRPVKKPRP | 0.031 |
| RRIRSRPPRLPRPRPRPDLFPRP | 0.256 |
| RRIRDRPPRLPRPRPRPNTLPRP | -0.269 |
| RRIRLRPPRLPRPRPRPQMKPRP | -0.0293 |
| RRIRIRPPRLPRPRPRPDDMPRP | -0.0552 |
| RRIRVRPPRLPRPRPRPIPRPRP | 0.0796 |
| RRIRRRPPRLPRPRPRPDWMPRP | 0.0919 |
| RRIRVRPPRLPRPRPRPEVHPRP | -0.0892 |
| RRIRSRPPRLPRPRPRPLWGPRP | -0.00343 |
| RRIRVRPPRLPRPRPRPDCSPRP | -0.0973 |
| RRIRKRPPRLPRPRPRPAVFPRP | 0.271 |
| RRIRERPPRLPRPRPRPAAFPRP | -0.0909 |
| RRIRQRPPRLPRPRPRPGIDPRP | 0.0179 |
| RRIRRRPPRLPRPRPRPSIGPRP | -0.0466 |
| RRIRERPPRLPRPRPRPACRPRP | 0.392 |
| RRIRTRPPRLPRPRPRPSFMPRP | -0.412 |
| RRIRTRPPRLPRPRPRPYWPPRP | -0.424 |
| RRIRERPPRLPRPRPRPQMPPRP | -0.292 |
| RRIRPRPPRLPRPRPRPPIPPRP | 0.15 |
| RRIRARPPRLPRPRPRPVIDPRP | -0.066 |
| RRIRVRPPRLPRPRPRPHAAPRP | 0.156 |
| RRIRERPPRLPRPRPRPRYVPRP | -0.0655 |

| Sequence | shrunken log2 fold change |
| --- | --- |
| RRIRMRPPRLPRPRPRPFQWPRP | -0.0962 |
| RRIRQRPPRLPRPRPRPMANPRP | -0.18 |
| RRIRTRPPRLPRPRPRPSPIPRP | -0.733 |
| RRIRLRPPRLPRPRPRPEFTPRP | -0.0622 |
| RRIRCRPPRLPRPRPRPKEQPRP | 0.0429 |
| RRIRIRPPRLPRPRPRPCLKPRP | -0.16 |
| RRIRTRPPRLPRPRPRPMVNPRP | 0.0818 |
| RRIRERPPRLPRPRPRPKWGPRP | -0.0917 |
| RRIRLRPPRLPRPRPRPDKGPRP | -0.162 |
| RRIRVRPPRLPRPRPRPTGKPRP | -0.116 |
| RRIRQRPPRLPRPRPRPQKTPRP | -0.064 |
| RRIRVRPPRLPRPRPRPTGYPRP | -0.239 |
| RRIRNRPPRLPRPRPRPAWGPRP | 0.288 |
| RRIRCRPPRLPRPRPRPVILPRP | -0.799 |
| RRIRIRPPRLPRPRPRPGHLPRP | -0.101 |
| RRIRTRPPRLPRPRPRPDVEPRP | 0.053 |
| RRIRKRPPRLPRPRPRPYKCPRP | -0.168 |
| RRIRQRPPRLPRPRPRPNPNPRP | -0.0129 |
| RRIRRRPPRLPRPRPRPTFAPRP | 0.765 |
| RRIRLRPPRLPRPRPRPHYKPRP | -0.525 |
| RRIRNRPPRLPRPRPRPDFQPRP | -0.156 |
| RRIRGRPPRLPRPRPRPVSKPRP | 0.276 |
| RRIRCRPPRLPRPRPRPMSWPRP | -0.159 |
| RRIRPRPPRLPRPRPRPAKNPRP | 0.235 |
| RRIRPRPPRLPRPRPRPEKKPRP | -0.044 |
